# Experimental data taken from patent publication US7265263B1, “Potato transcription factors, methods of use thereof, and a method for enhancing tuber development” (Iowa State University Research Foundation, Inc., priority 2002, dated 2007).
# B1: POTH1: KNOX transcription factor of potato, SEQ ID NO:17, 345 residues (protein, listed as Solanum tuberosum)
# chain: MDDEMYGFHSTRDDYADKALMSPENLMMQTEYNNFHNYTNSSILTSNPMMFGSDDIQLSSEQTNSFSTMTLQNNDNIYQIRSGNCGGGSGSGGSSKDHNDNNNNNEDYDEDGSNVIKAKIVSHPYYPKLLNAYIDCQKVGAPAGIVNLLEEIRQQTDFRKPNATSICIGADPELDEFMETYCDILLKYKSDLSRPFDEATTFLNKIEMQLGNLCKDDGGVSSDEELSCGEADASMRSEDNELKDRLLRKFGSHLSSLKLEFSKKKKKGKLPKEARQMLLAWWDDHFRWPYPTEADKNSLAESTGLDPKQINNWFINQRKRHWKPSENMQLAVMDNLSSQFFSSDD
# Legend:
# ga20ox1 promoter = assay: Transcription assay, GUS reporter driven by ga20ox1 promoter in tobacco protoplasts; format: cell-based, potato
# Text: The cauliflower mosaic virus (CaMV) 35S promoter in pBI221 (Clontech, Palo Alto, Calif.) was replaced by an enhancer fragment (-832 to -50) of the 35S promoter plus 980 bp of the ga20ox1 promoter to generate the pGAOP::β-glucuronidase (GUS) reporter construct. With this construct, the reporter GUS transcription level is augmented but its transcription may still be affected by the ga20ox1 promoter. A CaMV 35S promoter-driven luciferase (LUC) construct 35S-LUC (obtained from Dr. Takahashi, Dept. of Biological Sciences, Graduate School of Science, Univ. of Tokyo, Japan) was used as an internal control. Effector constructs were also generated by using pBI221 vector as a backbone, with the GUS gene replaced by the full-length cDNAs of either StBEL-05 or POTH1, downstream of the CaMV 35S promoter. Truncated cDNAs that encode the N-terminal protein-binding domains of StBEL-05 or POTH1 were used to generate the dominant negative constructs, StBEL5ΔC295 and POTH1ΔC122, respectively. The reporter construct with the mutated promoter was generated by site-directed PCR mutagenesis with oligos 5′-CTATTTGACTTC*ACACGGTTATTT-3′ (SEQ ID NO:23) and 5′-AAATAACCGTGTG*AAGTCAAATAG-3′ (SEQ ID NO:24).
# Fully expanded leaves from three- to four-week-old tobacco plants were excised and placed in K3 basal media (Kao et al., “Nutritional Requirements for Growth of Vicia hajastana Cells and Protoplasts at a Very Low Density in Liquid Media,” Planta 126:105-110 (1975), which is hereby incorporated by reference in its entirety) supplemented with 0.4 M sucrose, 0.25% (w-v) cellulases (Karlan Research Products, Santa Rosa, CA), and 0.05% (w-v) macerases (Calbiochem, La Jolla, Calif.) and incubated for overnight at 28° C. After incubation, the liberated protoplasts were filtered through sterile cheesecloth into a Babcock bottle, and centrifuged for 10 minutes at 1000 rpm. Protoplasts were collected from the bottleneck area and washed once in K3 media with 0.4 M sucrose and resuspended in K3 media containing 0.4 M glucose to a final concentration of 4×10^6 protoplasts per milliliter. […]
# (§1) Luciferase assays were performed by injecting 100-μL luciferase substrate (Promega, Madison, Wis.) into 20 μL of extract and measuring the emitted photons for 15 seconds in a TD-20 luminometer (Turner Designs, Sunnyvale, Calif.). […] A fluorescence multiwell plate reader, Fluoroskan II (MTX labs, Vienna, Va.), was used to measure GUS activity at 365 nm (excitation) and 455 nm (emission). Each sample was measured three times for both LUC and GUS activity. Relative GUS-LUC activity was calculated by dividing the ratio of GUS activity to LUC activity from different effectors with the ratio from reporter plasmid alone. Relative activities calculated from three transfection replications were presented as a mean±SE.
# [1] = tested on: potato ga20ox1 promoter (P1, P2, P3) and first intron; assay: Gel retardation assay with ga20ox1 promoter regions and first intron; format: binding
# Text: The first intron with partial flanking exon sequence (450 bp) of potato ga20ox1 and its promoter (981 bp, provided by Dr. Salomé Prat, CSIC Cantoblanco Campus, Univ. of Madrid, Spain) were used for gel mobility shift assays. Polymerase chain reaction (PCR) was used to amplify three regions of the promoter: -981 to 636 (P1), -660 to 307 (P2), and -331 to 0 (P3). About a 25-bp overlap was maintained between P1 and P2 or P2 and P3 in the chance that the protein-binding site would span the overlapped region. The first intron of this gene was amplified from potato genomic DNA by using PCR and the oligos 5′-[…]-3′ (SEQ ID NO:21) and 5′-[…]-3′ (SEQ ID NO:22) as primers. These primers were designed based on the site of the first intron of the tobacco GA20 oxidase gene Ntc12. The four fragments were purified on a 1.4% agarose gel and labeled with α^32P-dATP using Klenow fragment. […]
# In the competition assays, unlabeled double-stranded DNA fragments (10×, 25×, 50×, 100×) were incubated with the recombinant protein before the addition of the radioactive probe. The dissociation rates were determined by adding 500-fold more cold DNA fragments to the DNA-binding reactions that were being incubated on ice, and loaded onto the running gel every 10 minutes. […]
# POTH1 = assay: In vitro binding assay (immunoprecipitation) with POTH1; design: species or system Solanum tuberosum; settings: in vitro
# Method: In vitro binding experiments were performed as described by Ni et al., “PIF3, a Phytochrome-Interacting Factor Necessary for Normal Photoinduced Signal Transduction, is a Novel Basic Helix-Loop-Helix Protein,” Cell 95:657-667 (1998), which is hereby incorporated by reference in its entirety. The full-length sequence for POTH1 was cloned into a pET17b/GAD fusion cassette and transcribed under the control of the T7 promoter. […] Each 50 μl TnT reaction contained 2.0 μg of template plasmid DNA and 20 μmol (20 μCi) of labeled ^35S-methionine. The POTH1:GAD/BEL complex was immunoprecipitated with anti-GAD antibodies (Santa Cruz Biotechnology, Calif.). The proteins from the pellet (one-half the fraction) and for the prey (one-fourth of the reaction volume) were resolved on a 10% SDS-PAGE gel and visualized by autoradiography.
# CaMV 35S promoter = assay: Transcription assay, GUS reporter driven by CaMV 35S promoter in tobacco protoplasts; format: cell-based, cauliflower mosaic virus
# Method: FIGS. 24A-C show schematics of constructs (FIG. 24A) and the repression effect of StBEL-05 and POTH1 on the ga20ox1 promoter (FIG. 24B) and on the 35S CaMV promoter (FIG. 24C). The construct with the LUC gene under the control of the cauliflower mosaic virus (CaMV) 35S promoter was used as an internal control. Each transfection was performed three times. Relative GUS-LUC activity was calculated with reporter alone set as 100%. Data are means±SE.
# For each transfection analysis, 700 μL of tobacco protoplasts (prepared as described above) were mixed with 30 μL 2 M KCl and plasmid DNA in an electroporation cuvette with 0.4-cm electrode gap. […]
# as §1
molecule,measurement,setting,value
B1,relative GUS-LUC activity of the pGAOP::GUS reporter construct,"ga20ox1 promoter; co-transfected effector, reporter alone = 100%",decreased by more than half
same,"repression of promoter activity, reporter with point mutation in the binding site",ga20ox1 promoter; mutated ga20ox1 promoter,no detectable repression
same,binding to ga20ox1 regulatory regions (mobility shift),[1],only formed a complex with P1
same,homodimer formation,POTH1,did not form homodimers in vitro
same,effect on the activity of the CaMV 35S promoter,CaMV 35S promoter,Neither StBEL-05 nor POTH1 showed any effect
